Blank lines part the entries; values can stand above or below the compound they belong to.
Columns and labels:
[1] = cited from earlier work
[2] = system: SST2 CNiFERs implanted in mouse cortex; test: SST volume transmission in vivo, core-satellite SST2 CNiFER implants; settings: normal mouse cortex; distance less than 130 μm
[3] = biological target: SST2 receptor (hSSTR2) in SST2 CNiFER clone #5F3 (Homo sapiens, UniProt P30874); test: SST2 CNiFER FRET response, plate reader; format: cell-based; settings: 1000 nM; n = 3-6
Sequence of SST2 receptor (hSSTR2) in SST2 CNiFER clone #5F3 (P30874 whole entry): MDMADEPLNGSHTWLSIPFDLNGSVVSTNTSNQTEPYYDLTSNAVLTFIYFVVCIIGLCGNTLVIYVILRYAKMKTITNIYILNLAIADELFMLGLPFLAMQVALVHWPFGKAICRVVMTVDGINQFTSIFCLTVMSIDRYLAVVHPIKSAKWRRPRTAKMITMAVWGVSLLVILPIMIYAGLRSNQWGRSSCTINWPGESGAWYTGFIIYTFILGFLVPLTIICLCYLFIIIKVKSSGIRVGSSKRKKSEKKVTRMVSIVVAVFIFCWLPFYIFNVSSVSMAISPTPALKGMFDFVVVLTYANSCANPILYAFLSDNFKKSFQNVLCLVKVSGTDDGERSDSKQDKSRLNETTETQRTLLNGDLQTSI

[4] = Integrative optical imaging; format: physicochemical; settings: IOI, 0.3% dilute agarose gel in PBS; 31°C; n=30 records; Mean ± S.D.; SD
[5] = system: hyaluronan in mouse brain cortex; test: HABP immunostaining after intraventricular hyaluronidase; format: in vivo; settings: two days after hyase injection, n = 5 slices
[6] = cited from earlier work; remark: listed apart in the source

Compound: C[C@H](N)C(=O)NCC(=O)N[C@H]1CSSC[C@@H](C(=O)O)NC(=O)[C@H](CO)NC(=O)[C@H]([C@@H](C)O)NC(=O)[C@H](Cc2ccccc2)NC(=O)[C@H]([C@@H](C)O)NC(=O)[C@H](CCCCN)NC(=O)[C@H](Cc2c[nH]c3ccccc23)NC(=O)[C@H](Cc2ccccc2)NC(=O)[C@H](Cc2ccccc2)NC(=O)[C@H](CC(N)=O)NC(=O)[C@H](CCCCN)NC1=O [SST, Somatostatin-14]
- half-life in plasma [1]: 1 to 3 min
- time to activate SST2 CNiFERs [2]: below 10 s

- FRET response of SST2 CNiFERs [3]: small response
Compound: CC(=O)OCC[N+](C)(C)C [acetylcholine]

Compound: Fluorescein-5(6)-carbonyl-somatostatin-14 [5(6)-FAM-SST]
- free diffusion coefficient (D) [4]: (3.00 ± 0.18) × 10^-6 cm^2•s^-1

Compound: hyaluronidase
- cell nuclei number or size in cortex compared with control group [5]: no differences

Compound: oxytocin
- half-life in brain cerebrospinal fluid (CSF) [6]: ~ 20 mins

Compound: vasopressin
- half-life in brain cerebrospinal fluid (CSF) [6]: ~ 20 mins

Source: paper doi:10.1101/2021.09.10.459853v1 (bioRxiv, 2021)
